Our source for the % wild-type B7 binding (normalised to anti-B7 mAb 10.16A.1) and MF (mean fluorescence, control subtracted) values is article PMC2191977 (The Journal of Experimental Medicine, 1995).

The target of the experiment is B7 QDP/LEK (mouse) (UniProt Q00609). Nature of the experiment: flow cytometry on cells. On the technique in general: In flow cytometry, cells or beads pass a laser one at a time.

Chain of CTLA4Ig (P09793 36-161): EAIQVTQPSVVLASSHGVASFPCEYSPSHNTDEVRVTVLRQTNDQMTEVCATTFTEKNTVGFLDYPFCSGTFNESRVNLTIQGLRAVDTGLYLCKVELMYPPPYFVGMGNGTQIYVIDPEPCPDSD

In turn, “CTLA4Ig (from UniProt P09793 36-161) (Fc fusion)” gave a % wild-type B7 binding (normalised to anti-B7 mAb 10.16A.1) of 15% and an MF (mean fluorescence, control subtracted) of 42 MF.
